{"source": "patent US10918733B2", "about": "“Lipopeptide- and lipoprotein-conjugates and its use” (HELMHOLTZ-ZENTRUM FUER INFEKTIONSFORSCHUNG GMBH, priority 2009, dated 2021)", "assay_type_in_all_cases": "in vivo, C57BL6 mice", "key": {"[1]": {"test_system": "Ova-specific secretory IgA", "test": "Local Ova-specific secretory IgA in lavages after i.n. immunization (ELISA)", "conditions": "day 38", "protocol": "Experimental protocol: at day 38, mice were sacrificed and the final sampling was performed. Vaginal and lung lavages were obtained by flushing the organs with 1 ml of PBS supplemented with 50 mM EDTA, 0.1% BSA, and 10 mM PMSF. Lavages were then centrifuged to remove debris (10 min at 3000×g), and supernatant fluids were stored at −20° C. To determine the concentration of total IgA present in the lung and vaginal lavages, serial dilutions of the corresponding samples were incubated in microtiter plates that were previously coated with goat anti-mouse IgA (Sigma Chemie), as capture antibodies (100 μl/well). Serial dilutions of purified mouse IgA (Sigma Chemie) were used to generate a standard curve.\nTo investigate the capacity of BPPcysOva^mPEG to stimulate local immune responses given by the i.n. route, we analyzed the production of Ova-specific secretory IgA in lung, nasal and vaginal lavages from immunized animals.\nFIG. 5: Humoral responses stimulated following vaccination using BPPcysOva^mPEG. […] At day 38 post primary immunisation, serum samples were collected and the IgG 1 and IgG2c titres of Ova-specific antibodies were determined by ELISA. […] At day 38 post primary immunisation broncho alveolar lavage (BAL), nasal lavages (NL) and Vaginal lavages (VL) were collected and the Ova-specific secretory IgA (sIgA) expression in samples of immunized mice were determined by ELISA."}, "[2]": {"test_system": "Ova-specific IgG1 antibodies", "test": "Serum Ova-specific antibody titers after immunization (ELISA)", "conditions": "i.n.; by the end of the immunization protocol", "protocol": "(§1) Experimental protocol 1: six-eight weeks-old female C57BL6 mice were purchased from Harlan Winkelmann GmbH (Borchen, Germany) and treated in accordance with local and European Community guidelines. Groups of 5 mice each were immunized on day 1, 14 and 28 with 30 μg of Ova (Sigma Chemie, Deisenhofen, Germany) or LPS-free Ova (EndoGrade Ovalbumin, Hyglos GmbH) alone, co-administered with 5 μg of BPPcysMPEG or with 5 to 10 μg of synthetic BPPcysOva^mPEG alone. For intranasal (i.n.) immunization, 10 μl were applied to each naris, whereas for the s.c. the compounds were resuspended in 50 μl of PBS per dose. Serum samples were collected at different time points (day 0, 13, 27 and 38) after immunization and stored at −20° C. prior to determination of Ova-specific antibodies. 96-well Nunc-Immuno MaxiSorp assay plates (Nunc, Roskilde, Denmark) were coated with 100 μl of Ova (Sigma Chemie, Deisenhofen, Germany) at 5 μg/ml in 0.05 M carbonate buffer (pH 8.2) per well. […] Endpoint titers were expressed as the reciprocal log2 of the last dilution, which gave an optical density at 405 nm of 0.1 units above the values of the negative controls after 15 to 30 min of incubation. […]\nFIG. 5: Humoral responses stimulated following vaccination using BPPcysOva^mPEG. […] At day 38 post primary immunisation, serum samples were collected and the IgG 1 and IgG2c titres of Ova-specific antibodies were determined by ELISA. […]"}, "[3]": {"test": "Tolerability during the immunization period", "conditions": "i.n. or s.c. immunization", "protocol": "as §1, with “well. Serial two-fold dilutions of sera or lavages in PBS with 1% BSA and 0.05% Tween 20 were added (100 μl/well), and plates incubated for 2 h at 37° C.” for “well.”"}}, "data": [{"molecule": "Ova: model antigen ovalbumin (Sigma Chemie) (protein, UniProt P01012 2-386, looked up) Ovalbumin: GSIGAASMEFCFDVFKELKVHHANENIFYCPIAIMSALAMVYLGAKDSTRTQINKVVRFDKLPGFGDSIEAQCGTSVNVHSSLRDILNQITKPNDVYSFSLASRLYAEERYPILPEYLQCVKELYRGGLEPINFQTAADQARELINSWVESQTNGIIRNVLQPSSVDSQTAMVLVNAIVFKGLWEKAFKDEDTQAMPFRVTEQESKPVQMMYQIGLFRVASMASEKMKILELPFASGTMSMLVLLPDEVSGLEQLESIINFEKLTEWTSSNVMEERKIKVYLPRMKMEEKYNLTSVLMAMGITDVFSSSANLSGISSAESLKISQAVHAAHAEINEAGREVVGSAEAGVDAASVSEEFRADHPFLFCIKHIATNAVLFFGRCVSP", "values": [{"measurement": "Ova-specific IgA in lung lavages", "setting": "[1]", "value": "failed to stimulate the production of detectable levels"}, {"measurement": "Ova-specific IgG1 endpoint titer in serum", "setting": "[2]", "value": "≤ 10^6"}, {"measurement": "adverse effect during the immunization period", "setting": "[3]", "value": "no adverse effect"}]}]}
